Molecular target: long form of human LepR (LepRb), full length, on HEK293T cells (human) (UniProt P48357)
Experiment: flow cytometry on cells

Sequence of UniProt P48357 (P48357 22-1165): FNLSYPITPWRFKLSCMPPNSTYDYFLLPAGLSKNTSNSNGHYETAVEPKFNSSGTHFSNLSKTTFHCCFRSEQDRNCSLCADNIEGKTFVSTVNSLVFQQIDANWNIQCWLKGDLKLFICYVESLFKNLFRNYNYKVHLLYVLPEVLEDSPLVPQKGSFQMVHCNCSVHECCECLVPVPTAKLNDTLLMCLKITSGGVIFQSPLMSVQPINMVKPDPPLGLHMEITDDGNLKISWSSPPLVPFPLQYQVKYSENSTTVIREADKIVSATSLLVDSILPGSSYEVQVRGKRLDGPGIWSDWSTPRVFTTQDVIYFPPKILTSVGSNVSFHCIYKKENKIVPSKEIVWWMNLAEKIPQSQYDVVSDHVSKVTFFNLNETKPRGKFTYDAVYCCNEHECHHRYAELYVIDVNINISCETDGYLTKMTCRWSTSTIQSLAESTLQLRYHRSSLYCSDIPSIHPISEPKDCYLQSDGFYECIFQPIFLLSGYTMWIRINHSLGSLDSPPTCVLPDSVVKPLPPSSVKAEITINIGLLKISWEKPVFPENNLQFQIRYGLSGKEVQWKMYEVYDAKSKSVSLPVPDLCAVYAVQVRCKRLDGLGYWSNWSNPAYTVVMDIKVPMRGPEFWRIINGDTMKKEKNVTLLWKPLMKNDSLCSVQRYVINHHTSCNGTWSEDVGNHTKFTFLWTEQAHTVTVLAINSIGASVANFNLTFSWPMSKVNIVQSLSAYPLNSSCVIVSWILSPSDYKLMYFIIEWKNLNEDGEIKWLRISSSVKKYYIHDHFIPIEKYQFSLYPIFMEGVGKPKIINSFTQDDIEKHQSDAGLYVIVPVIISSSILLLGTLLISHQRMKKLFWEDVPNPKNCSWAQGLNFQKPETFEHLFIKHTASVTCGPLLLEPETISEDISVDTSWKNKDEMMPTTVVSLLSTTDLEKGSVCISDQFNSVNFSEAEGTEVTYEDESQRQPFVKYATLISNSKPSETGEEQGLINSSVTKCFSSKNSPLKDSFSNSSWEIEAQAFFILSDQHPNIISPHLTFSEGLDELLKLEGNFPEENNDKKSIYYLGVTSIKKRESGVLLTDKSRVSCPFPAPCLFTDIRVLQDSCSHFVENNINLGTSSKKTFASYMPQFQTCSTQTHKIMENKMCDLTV

## FITC-labeled rASRA (natural protein)
  Kd: 2.2 nM
